Results reported in publication PMC3153034.

Target: recombinant Smc04048 cytochrome c from Sinorhizobium meliloti (Sinorhizobium meliloti)
Test: SEC

“recombinant Smc04048 cytochrome c from Sinorhizobium meliloti (natural protein)” was tested, and the stoichiometry N was 2.
